Drawing on patent publication US20260250421A1 (BIOCYTOGEN PHARMACEUTICALS BEIJING, published 2026), this text covers MFI and binding ratio for eight molecules.

For experiment [1], the target named is T1, dog PTK7 on dog cancer cell lines (dog, UniProt A0A8I3N574 31-1070).
T1 construct: whole, on cells; Endogenous protein on dog tumour cell lines; also called PTK7 on CMT-U27 and D-17 cells; dog cancer cells
T1 sequence: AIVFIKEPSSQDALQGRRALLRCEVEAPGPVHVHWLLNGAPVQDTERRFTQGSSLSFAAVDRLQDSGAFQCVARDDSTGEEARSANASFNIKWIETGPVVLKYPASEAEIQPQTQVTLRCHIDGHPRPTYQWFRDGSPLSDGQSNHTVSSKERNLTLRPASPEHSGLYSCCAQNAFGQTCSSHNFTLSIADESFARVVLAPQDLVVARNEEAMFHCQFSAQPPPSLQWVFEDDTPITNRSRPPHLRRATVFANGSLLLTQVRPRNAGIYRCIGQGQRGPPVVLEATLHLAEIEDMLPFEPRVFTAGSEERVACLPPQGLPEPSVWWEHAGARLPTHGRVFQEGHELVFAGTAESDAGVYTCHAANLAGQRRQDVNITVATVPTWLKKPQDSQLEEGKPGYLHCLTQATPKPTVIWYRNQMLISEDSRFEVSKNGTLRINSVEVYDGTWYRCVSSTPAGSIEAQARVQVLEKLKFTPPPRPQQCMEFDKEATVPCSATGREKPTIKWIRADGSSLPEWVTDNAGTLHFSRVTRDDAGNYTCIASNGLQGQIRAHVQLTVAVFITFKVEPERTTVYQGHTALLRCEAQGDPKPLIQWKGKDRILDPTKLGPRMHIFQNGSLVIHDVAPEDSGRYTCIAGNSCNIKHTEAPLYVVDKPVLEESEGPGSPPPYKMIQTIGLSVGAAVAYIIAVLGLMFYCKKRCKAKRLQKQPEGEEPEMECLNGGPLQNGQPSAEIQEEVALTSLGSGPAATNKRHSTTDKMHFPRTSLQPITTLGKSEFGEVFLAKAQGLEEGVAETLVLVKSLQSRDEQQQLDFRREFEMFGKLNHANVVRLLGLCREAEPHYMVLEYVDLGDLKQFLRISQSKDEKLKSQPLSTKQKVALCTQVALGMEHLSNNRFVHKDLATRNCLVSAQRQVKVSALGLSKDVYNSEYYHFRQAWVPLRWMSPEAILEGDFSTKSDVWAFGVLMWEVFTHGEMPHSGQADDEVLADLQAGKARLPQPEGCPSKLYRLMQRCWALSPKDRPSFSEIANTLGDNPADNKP
The experiment can be described thus: flow cytometry, CMT-U27 dog cells, Ab 5 ug/mL. As to the method:
The binding activity of anti-PTK7 antibodies to cancer cell lines was verified by flow cytometry. […] Purified anti-PTK7 antibody with a concentration of 5 μg/mL was added to each well and was incubated at 4° C. for 30 minutes. […] The cells were collected, and the mean fluorescence intensity (MFI) was determined. Human IgG1 was used as ISO control.
For orientation: Flow cytometry measures light scatter and fluorescence of single cells or particles in a stream.

In experiment [2] the target is T2, His-tagged human PTK7 protein (human, UniProt Q13308 31-704).
T2 construct: Bought protein; also called hPTK7-His; not shown: His tag
T2 sequence: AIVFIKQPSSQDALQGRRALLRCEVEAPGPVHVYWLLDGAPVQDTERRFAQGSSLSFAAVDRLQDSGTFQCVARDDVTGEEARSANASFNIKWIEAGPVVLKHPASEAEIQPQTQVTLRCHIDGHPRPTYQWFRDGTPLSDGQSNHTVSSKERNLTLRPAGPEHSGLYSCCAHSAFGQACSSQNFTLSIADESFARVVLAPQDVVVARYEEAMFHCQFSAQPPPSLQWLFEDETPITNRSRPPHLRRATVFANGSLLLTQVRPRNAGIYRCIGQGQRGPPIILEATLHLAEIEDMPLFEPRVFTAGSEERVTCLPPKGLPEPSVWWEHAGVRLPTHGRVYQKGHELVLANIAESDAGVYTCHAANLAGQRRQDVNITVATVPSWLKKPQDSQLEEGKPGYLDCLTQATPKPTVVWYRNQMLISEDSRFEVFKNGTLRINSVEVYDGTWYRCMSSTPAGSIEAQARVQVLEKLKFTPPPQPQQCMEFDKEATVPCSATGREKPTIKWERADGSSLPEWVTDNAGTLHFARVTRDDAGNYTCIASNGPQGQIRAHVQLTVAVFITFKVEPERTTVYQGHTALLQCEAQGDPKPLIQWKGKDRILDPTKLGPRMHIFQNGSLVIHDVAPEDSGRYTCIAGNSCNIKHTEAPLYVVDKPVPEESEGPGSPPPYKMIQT
As to the kind of experiment: BLI Octet binning on hPTK7-His; competitor 2A5. As to the method:
Relative positions of target protein epitope between a pair of purified anti-PTK7 antibodies were analyzed by Biolayer Interferometry (BLI) using ForteBio Octet system at 30° C. A total of […] purified antibodies were used: 1A7, 1A11, 1F2, 2A5, 2D11, 2F5, 3C4 and 3E6.
1×HBS-EP+ buffer (10 mM 4-(2-hydroxyethyl)-1-piperazineethanesulfonic acid (HEPES), 150 mM NaCl, 3 mM ethylenediaminetetraacetic acid (EDTA) and 0.05% P20, pH7.4) diluted from HBS-EP+ buffer (10×) was used as the running buffer throughout the experiment. His-tagged human PTK7 protein was captured at a flow rate of 10 μL/min, and 200 nM of antibody (Analyte 1) was injected at a flow rate of 30 μL/min to bind the ligand. Another antibody (Analyte 2) was injected under the same conditions to determine whether the binding of different antibodies interfered with each other. The binding time was 300 s for each antibody.
The binding value of each antibody was obtained using Data Analysis HT 12.0. To quantify the interference of one antibody binding to another, a binding ratio was calculated to compare each pair of antibodies. The binding ratio is defined as the binding value of the second antibody (Analyte 2), divided by the binding value of the first antibody (Analyte 1). […] In general, antibody pairs that interfere with each other have the same or overlapping epitopes.

Numbering of substitutions follows the chain as printed.

B1: 1F2 (antibody, V domains shown)
VH: QVQLVQSGGGLVQPGGSLRLSCAASGFTFSRYEMNWVRQAPGKGLEWVSYINSIGSAINYADSVKGRFTISRDNAKNSLYLQMRSLRAEDTAVYYCVREDNWNPGYWGQGTLVTVSS
VL: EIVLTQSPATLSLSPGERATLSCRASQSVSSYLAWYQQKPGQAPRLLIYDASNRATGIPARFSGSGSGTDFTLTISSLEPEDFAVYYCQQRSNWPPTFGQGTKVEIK
notes: also called anti-PTK7 antibody 1F2
In the case of B1, the MFI in experiment [1] was found to be 45800. Besides, the binding ratio in experiment [2] was 0.71.

B2: 1A7 (antibody, human IgG1, V domains shown)
VH: QVQLVESGGGVVQPGRSLRLSCAASGFTFSNYGMHWVRQAPGKGLEWVAVIYYDGSNKFYADSVKGRFTISRDNSKNTLYLQMSSLRAEDTAVYYCARDVAPPGSRAEYFHHWGQGTLVTVSS
VL: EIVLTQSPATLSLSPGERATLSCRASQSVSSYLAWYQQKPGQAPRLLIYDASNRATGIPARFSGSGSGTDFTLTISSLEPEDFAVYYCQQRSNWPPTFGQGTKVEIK
notes: also called anti-PTK7 antibody 1A7
In experiment [1], B2 returned an MFI of 56700. For the same molecule, the binding ratio in experiment [2] was 0.1.

B3: 2F5 (antibody, V domains shown)
VH: B2 VH with A23V, V50I, F59Y, S84N, P102A, P103A, F110L
VL: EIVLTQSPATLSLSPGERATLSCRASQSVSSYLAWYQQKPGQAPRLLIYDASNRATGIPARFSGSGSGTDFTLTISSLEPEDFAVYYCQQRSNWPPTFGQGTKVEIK
notes: also called anti-PTK7 antibody 2F5
Turning to B3, the MFI in experiment [1] is 81300. Also, the binding ratio in experiment [2] worked out at 0.12.

B4: 2D11 (antibody, V domains shown)
VH: B2 VH with N31S, Y52F, F59Y, S84N, A92S, P102A, H111Q, H112N
VL: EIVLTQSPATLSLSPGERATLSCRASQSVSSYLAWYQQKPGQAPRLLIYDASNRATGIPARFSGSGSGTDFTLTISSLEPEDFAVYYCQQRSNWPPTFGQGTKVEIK
notes: also called anti-PTK7 antibody 2D11
In the case of B4, in experiment [1], the MFI turned out to be 72200. In experiment [2], the binding ratio is 0.15.

B5: 2A5 (antibody, V domains shown)
VH: B2 VH with E6Q, Y52W, S56R, F59Y, S84N, P103A, H111Q, H112N
VL: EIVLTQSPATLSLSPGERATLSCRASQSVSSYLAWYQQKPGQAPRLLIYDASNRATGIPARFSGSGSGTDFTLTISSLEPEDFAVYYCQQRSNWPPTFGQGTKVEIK
notes: also called anti-PTK7 antibody 2A5
In turn, B5 gave an MFI in experiment [1] of 76400. Further, the binding ratio in experiment [2] is 0.05.

B6: 3C4 (antibody, V domains shown)
VH: QVQLEQSRAEVKKPGESLRISCKGSGYSFTSYWISWVRQMPGKGLEWMGRIDPSDSYTNYNPSFQGHVTISADKSISTAYLQWSSLKASDTAMYYCARRDGSYFDFDYWGQGTLVTVSS
VL: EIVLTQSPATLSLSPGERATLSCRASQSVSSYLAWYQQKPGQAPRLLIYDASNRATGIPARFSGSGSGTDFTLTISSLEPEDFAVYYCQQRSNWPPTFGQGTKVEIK
notes: also called anti-PTK7 antibody 3C4
In experiment [1], B6 displayed an MFI of 37400. Besides, the binding ratio in experiment [2] was found to be 0.93.

B7: 3E6 (antibody, V domains shown)
VH: B6 VH with E5V, Q6E, R8G, K23R, N59K, N61S, S102D
VL: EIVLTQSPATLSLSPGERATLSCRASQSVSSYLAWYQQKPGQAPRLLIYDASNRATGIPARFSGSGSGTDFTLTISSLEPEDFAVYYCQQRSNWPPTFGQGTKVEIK
notes: also called anti-PTK7 antibody 3E6
B7 came in with an MFI in experiment [1] of 94500. Moreover, the binding ratio in experiment [2] was 0.81.

B8: 1A11 (antibody, V domains shown)
VH: QVQLVQSGPGLVKPSETLSLTCTVSGGSINSYYWNWIRQPPGKGLEWIGYIYYSGSTNYNPSLKSRVTISVDTSKNQFSLKLSSVTAADTAVYYCARDPHDYIRGHFDLWGRGTLFTVSS
VL: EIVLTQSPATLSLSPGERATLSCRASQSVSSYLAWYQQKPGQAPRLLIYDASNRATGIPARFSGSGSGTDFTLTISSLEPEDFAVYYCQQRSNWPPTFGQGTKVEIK
notes: also called anti-PTK7 antibody 1A11
With B8, the MFI in experiment [1] was found to be 75600. For the same molecule, the binding ratio in experiment [2] was 0.75.
